# Data published in article PMC6205631, “Topological in vitro loading of the budding yeast cohesin ring onto DNA” (Life Science Alliance, 2018).
# T1: Scc3 (budding yeast, UniProt P40541 1-1150)
# T1 construct: Scc3, budding yeast cohesin subunit; genomic DNA encoding Scc3; also called HEAT repeat subunit Scc3; source: co-purified (IgG agarose, heparin, Superose 6)
# T1 sequence (looked up): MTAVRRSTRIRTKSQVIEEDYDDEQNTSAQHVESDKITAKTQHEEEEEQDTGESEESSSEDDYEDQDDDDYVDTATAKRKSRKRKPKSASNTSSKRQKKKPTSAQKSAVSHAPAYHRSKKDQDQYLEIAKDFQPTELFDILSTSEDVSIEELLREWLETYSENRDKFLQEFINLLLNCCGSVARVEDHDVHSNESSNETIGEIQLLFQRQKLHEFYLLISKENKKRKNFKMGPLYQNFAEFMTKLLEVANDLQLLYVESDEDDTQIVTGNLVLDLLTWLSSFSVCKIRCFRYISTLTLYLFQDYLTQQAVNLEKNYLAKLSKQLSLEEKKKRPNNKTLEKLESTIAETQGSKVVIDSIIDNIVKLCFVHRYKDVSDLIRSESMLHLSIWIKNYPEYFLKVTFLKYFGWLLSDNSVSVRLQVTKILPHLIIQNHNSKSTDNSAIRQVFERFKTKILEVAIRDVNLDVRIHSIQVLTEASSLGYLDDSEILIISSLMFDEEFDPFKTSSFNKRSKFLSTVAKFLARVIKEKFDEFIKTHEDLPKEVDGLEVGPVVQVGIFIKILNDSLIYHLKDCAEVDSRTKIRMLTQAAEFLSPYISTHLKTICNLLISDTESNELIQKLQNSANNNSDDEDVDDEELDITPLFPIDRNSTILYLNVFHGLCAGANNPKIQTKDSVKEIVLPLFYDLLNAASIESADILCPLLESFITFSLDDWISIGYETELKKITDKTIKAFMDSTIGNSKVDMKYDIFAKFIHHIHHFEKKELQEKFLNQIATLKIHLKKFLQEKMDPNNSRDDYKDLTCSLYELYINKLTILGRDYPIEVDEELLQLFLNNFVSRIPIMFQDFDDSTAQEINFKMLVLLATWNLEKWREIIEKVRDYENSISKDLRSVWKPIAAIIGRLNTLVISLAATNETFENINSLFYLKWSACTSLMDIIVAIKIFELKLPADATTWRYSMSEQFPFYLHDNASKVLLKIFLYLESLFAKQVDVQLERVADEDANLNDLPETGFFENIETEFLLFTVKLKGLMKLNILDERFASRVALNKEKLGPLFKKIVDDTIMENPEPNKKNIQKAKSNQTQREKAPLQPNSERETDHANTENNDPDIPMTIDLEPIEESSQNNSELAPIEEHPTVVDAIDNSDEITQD
# T2: Smc3 (budding yeast, UniProt P47037 1-1230)
# T2 construct: Smc3, budding yeast cohesin subunit; Smc3-encoding genomic DNA; The expression strain is eco1 deleted; also called cohesin subunit Smc3; source: co-purified (IgG agarose, heparin, Superose 6)
# T2 sequence (looked up): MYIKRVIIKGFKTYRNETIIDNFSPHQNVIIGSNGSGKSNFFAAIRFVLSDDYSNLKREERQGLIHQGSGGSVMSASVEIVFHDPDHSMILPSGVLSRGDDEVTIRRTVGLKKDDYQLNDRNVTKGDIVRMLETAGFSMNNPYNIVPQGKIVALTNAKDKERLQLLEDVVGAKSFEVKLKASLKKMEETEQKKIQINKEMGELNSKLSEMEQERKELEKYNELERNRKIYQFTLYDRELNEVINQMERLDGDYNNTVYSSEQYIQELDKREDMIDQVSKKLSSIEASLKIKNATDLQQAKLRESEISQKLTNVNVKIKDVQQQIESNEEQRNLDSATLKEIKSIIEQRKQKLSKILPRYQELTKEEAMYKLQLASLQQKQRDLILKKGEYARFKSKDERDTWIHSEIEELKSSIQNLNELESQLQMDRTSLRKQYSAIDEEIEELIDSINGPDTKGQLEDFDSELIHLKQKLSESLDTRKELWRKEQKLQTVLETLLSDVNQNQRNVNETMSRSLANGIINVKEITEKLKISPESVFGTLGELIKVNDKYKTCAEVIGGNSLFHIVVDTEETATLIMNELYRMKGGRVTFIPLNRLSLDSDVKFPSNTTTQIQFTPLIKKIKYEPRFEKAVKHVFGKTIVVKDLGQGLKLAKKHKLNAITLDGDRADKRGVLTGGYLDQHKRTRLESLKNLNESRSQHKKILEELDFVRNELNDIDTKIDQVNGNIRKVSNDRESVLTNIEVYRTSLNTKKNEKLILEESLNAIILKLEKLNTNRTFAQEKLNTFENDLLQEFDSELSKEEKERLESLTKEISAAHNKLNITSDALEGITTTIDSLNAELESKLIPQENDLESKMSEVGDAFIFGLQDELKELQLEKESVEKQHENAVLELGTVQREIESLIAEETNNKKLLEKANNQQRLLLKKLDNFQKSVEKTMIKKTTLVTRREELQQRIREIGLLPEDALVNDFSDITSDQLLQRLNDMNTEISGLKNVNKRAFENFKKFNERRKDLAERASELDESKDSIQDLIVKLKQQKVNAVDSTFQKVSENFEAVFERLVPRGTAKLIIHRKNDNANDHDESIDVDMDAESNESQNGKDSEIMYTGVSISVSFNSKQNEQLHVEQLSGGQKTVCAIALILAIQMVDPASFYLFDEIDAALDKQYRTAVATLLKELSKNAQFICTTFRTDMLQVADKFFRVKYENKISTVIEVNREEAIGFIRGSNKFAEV
# B1: Scc1 (natural protein, budding yeast, UniProt Q12158 1-566, looked up)
# chain: MVTENPQRLTVLRLATNKGPLAQIWLASNMSNIPRGSVIQTHIAESAKEIAKASGCDDESGDNEYITLRTSGELLQGIVRVYSKQATFLLTDIKDTLTKISMLFKTSQKMTSTVNRLNTVTRVHQLMLEDAVTEREVLVTPGLEFLDDTTIPVGLMAQENSMERKVQGAAPWDTSLEVGRRFSPDEDFEHNNLSSMNLDFDIEEGPITSKSWEEGTRQSSRNFDTHENYIQDDDFPLDDAGTIGWDLGITEKNDQNNDDDDNSVEQGRRLGESIMSEEPTDFGFDLDIEKEAPAGNIDTITDAMTESQPKQTGTRRNSKLLNTKSIQIDEETENSESIASSNTYKEERSNNLLTPQPTNFTTKRLWSEITESMSYLPDPILKNFLSYESLKKRKIHNGREGSIEEPELNVSLNLTDDVISNAGTNDNSFNELTDNMSDFVPIDAGLNEAPFPEENIIDAKTRNEQTTIQTEKVRPTPGEVASKAIVQMAKILRKELSEEKEVIFTDVLKSQANTEPENITKREASRGFFDILSLATEGCIGLSQTEAFGNIKIDAKPALFERFINA
# notes: Scc1, budding yeast cohesin kleisin subunit; genomic DNA encoding Scc1; also called kleisin subunit Scc1; source: co-purified (IgG agarose, heparin, Superose 6); not shown: two tandem protein A tags, C-terminal, kept
# B2: Smc1 (natural protein, budding yeast, UniProt P32908 1-1225, looked up)
# chain: MGRLVGLELSNFKSYRGVTKVGFGESNFTSIIGPNGSGKSNMMDAISFVLGVRSNHLRSNILKDLIYRGVLNDENSDDYDNEGAASSNPQSAYVKAFYQKGNKLVELMRIISRNGDTSYKIDGKTVSYKDYSIFLENENILIKAKNFLVFQGDVEQIAAQSPVELSRMFEEVSGSIQYKKEYEELKEKIEKLSKSATESIKNRRRIHGELKTYKEGINKNEEYRKQLDKKNELQKFQALWQLYHLEQQKEELTDKLSALNSEISSLKGKINNEMKSLQRSKSSFVKESAVISKQKSKLDYIFKDKEKLVSDLRLIKVPQQAAGKRISHIEKRIESLQKDLQRQKTYVERFETQLKVVTRSKEAFEEEIKQSARNYDKFKLNENDLKTYNCLHEKYLTEGGSILEEKIAVLNNDKREIQEELERFNKRADISKRRITEELSITGEKLDTQLNDLRVSLNEKNALHTERLHELKKLQSDIESANNQEYDLNFKLRETLVKIDDLSANQRETMKERKLRENIAMLKRFFPGVKGLVHDLCHPKKEKYGLAVSTILGKNFDSVIVENLTVAQECIAFLKKQRAGTASFIPLDTIETELPTLSLPDSQDYILSINAIDYEPEYEKAMQYVCGDSIICNTLNIAKDLKWKKGIRGKLVTIEGALIHKAGLMTGGISGDANNRWDKEEYQSLMSLKDKLLIQIDELSNGQRSNSIRAREVENSVSLLNSDIANLRTQVTQQKRSLDENRLEIKYHNDLIEKEIQPKITELKKKLDDLENTKDNLVKEKEALQNNIFKEFTSKIGFTIKEYENHSGELMRQQSKELQQLQKQILTVENKLQFETDRLSTTQRRYEKAQKDLENAQVEMKSLEEQEYAIEMKIGSIESKLEEHKNHLDELQKKFVTKQSELNSSEDILEDMNSNLQVLKRERDGIKEDIEKFDLERVTALKNCKISNINIPISSETTIDDLPISSTDNEAITISNSIDINYKGLPKKYKENNTDSARKELEQKIHEVEEILNELQPNARALERYDEAEGRFEVINNETEQLKAEEKKILNQFLKIKKKRKELFEKTFDYVSDHLDAIYRELTKNPNSNVELAGGNASLTIEDEDEPFNAGIKYHATPPLKRFKDMEYLSGGEKTVAALALLFAINSYQPSPFFVLDEVDAALDITNVQRIAAYIRRHRNPDLQFIVISLKNTMFEKSDALVGVYRQQQENSSKIITLDLSNYAE
# notes: Smc1, budding yeast cohesin subunit; PCR amplified Smc1-encoding genomic DNA; also called cohesin subunit Smc1; source: co-purified (IgG agarose, heparin, Superose 6)
# Legend:
# Scc3 = target: T1, Scc3; assay: SEC; purified cohesin tetramer, 150 nM in cohesin loading buffer (35 mM Tris-HCl pH 7.0, 20 mM NaCl, 0.5 mM MgCl2, 0.5 mM ATP), run directly or after 120 min at 29°C on Superose 6 Increase 10/300 GL in R buffer (150 mM NaCl); UV absorbance; conditions: both partners purified
# Smc3 = target: T2, Smc3; assay: as above; conditions: both partners purified
binder,measurement,setting,value
B1,binding result,Scc3,binds
B2,binding result,Smc3,binds
